In US20140141019A1:

Experiments:
Experiment in all cases: SPOT alanine scanning, spot intensity
[1] = biological target: HER3 peptide 342-356 … with Asp352 replaced by alanine (human)
[2] = biological target: HER3 peptide 343-357 … with Asp352 replaced by alanine (human)
[3] = biological target: HER3 peptide 344-358 … with Asp352 replaced by alanine (human)
[4] = biological target: alanine analogs at Pro353 and Ile357 of the HER3 pentadecapeptides 342-356, 343-357 and 344-358

- decrease in binding capacity against the unmodified peptide [1]: 92%
- decrease in binding capacity against the unmodified peptide [2]: 92%
- decrease in binding capacity against the unmodified peptide [3]: 92%
- decrease in antibody reactivity against the unmodified peptide [4]: 40 to 60%
B1: mAb H4B-121 (purified human IgG) (antibody, V domains shown)
VH: EVQLVESGGGLVQPGRSLRLSCAASGFTFDDYAMHWVRQAPGKGLEWVSGISWNSGSIGYADSVKGRFTISRDNAKNSLYLQMNSLRAEDTAVYYCAREGQWPNYGMDVWGQGTTVTVSS
VL: QSVLTQPPSVSAAPGQKVTISCPGSSSNIGNNYVSWYQQLPGTAPKLLIYDNNERPSGIPDRFSGSTSGTSATLDITDLQAEDEATYYCGAWDNTLGVYVLGTGTQLTVL
